Here are results for five molecules from US5693758A, “Immunoglobulin E competitor” (501 Research Corporation Limited, priority 1987, dated 1997).

In test [1] the test system is Fc receptors of mast cells. The conditions noted are these: cited from earlier work; for blocking activity: reported by Bennich.
The test system of test [2] is FcER2 positive RPMI 8866 B cells. Nature of the test: Indirect immunofluorescence binding of rE peptides to RPMI 8866 B cells (FACScan). The arrangement: species or system human. The conditions noted are these: for % positive cells: RPMI 8866 B cells, indirect immunofluorescence, 0.1-200 μg/ml ligand, 40 min 4° C., mean ±S.D. of 9 experiments; for binding to FcER2 positive RPMI 8866 B cells (in words): further indirect immunofluorescence studies. The method, then:
RPMl 8866 cells were incubated with different concentrations of rE peptides and indirect immuno-fluorescence was performed.
For indirect immunofluorescence the results of which are summarised in Table VII, 0.5×10^6 RPMI 8866 cells (>99% FcER2 positive) in staining buffer (RPMI 1640 - 2.5% fetal bovine serum, containing 0.01% azide) were incubated with various concentrations (0.1-200 μg/ml) of purified rE fragments or native IgE(PS) for 40 minutes at 4° C. After washing, the cells were incubated for 30 minutes at 4° C. with the appropriate fluorescein isothiocyanate (FITC)-conjugated anti-Fc mAB or with an affinity-purified goat anti-human IgE antibody (10 μg/ml). After extensive washing, the percentage of cells binding IgE or the rE fragments was evaluated by a FACScan (Becton Dickinson, Mountain View, Calif.).

Consider “Asp-Ser-Asn-Pro-Arg (DSNPR; printed: Asp-Ser-Asn-Pro-Arg)”, for which the blocking activity result in test [1] is recorded as “neither of the peptides Asp-Ser-Asp-Pro-Arg nor Asp-Ser-Asn-Pro-Arg has any blocking activity”.
As for “Asp-Ser-Asp-Pro-Arg (DSDPR; printed: Asp-Ser-Asp-Pro-Arg) [HEPP, Human Immunoglobulin E Polypeptide, pentapeptide from IgE heavy chain 330 to 334]”, the blocking activity result in test [1] was “neither of the peptides Asp-Ser-Asp-Pro-Arg nor Asp-Ser-Asn-Pro-Arg has any blocking activity”. The specific activity result in test [1] (reported) was “low”.

B1: rE2: recombinant IgE peptide Asp 218-Val 336 (CH2) (protein, UniProt P01854 218-336, looked up, fragment)
chain: SAYLSRPSPFDLFIRKSPTITCLVVDLAPSKGTVNLTWSRASGKPVNHSTRKEEKQRNGTLTVTSTLPVGTRDWIEGETYQCRVTHPHLPRALMRSTTKTSGPRAAPEVYAFATPEWPG
Take B1: in test [2], the “% positive cells” value came to 2 ± 1% and the “binding to FcER2 positive RPMI 8866 B cells (in words)” value (“binding” below) was “no detectable binding”.

B2: rE2-3: recombinant IgE peptide Asp 218-Pro 439 (CH2 and CH3) (protein, UniProt P01854 218-439, looked up, fragment)
chain: SAYLSRPSPFDLFIRKSPTITCLVVDLAPSKGTVNLTWSRASGKPVNHSTRKEEKQRNGTLTVTSTLPVGTRDWIEGETYQCRVTHPHLPRALMRSTTKTSGPRAAPEVYAFATPEWPGSRDKRTLACLIQNFMPEDISVQWLHNEVQLPDARHSTTQPRKTKGSGFFVFSRLEVTRAEWEQKDEFICRAVHEAASPSQTVQRAVSVNPGLAGGSAQSQRAP
In the case of B2, in test [2], the “% positive cells” value stood at 3 ± 1% and the “binding” value is on record as “no detectable binding”.

B3: rE2'-3': recombinant IgE peptide Gln 301-Arg 376 (protein, UniProt P01854 301-376, looked up, fragment)
chain: VTHPHLPRALMRSTTKTSGPRAAPEVYAFATPEWPGSRDKRTLACLIQNFMPEDISVQWLHNEVQLPDARHSTTQP
As to B3, in test [2], the “% positive cells” value amounted to 2 ± 1% and the “binding” value is “no detectable binding”.
